B1: library; numbered along this chain (parent)
chain: MRKPRAAVGSGHRKQAASQEGRQKHAKNNSQAKPSACDGLARQPEEVVLQASVSSYHLFRDVAEVTAFRGSLLSWYDQEKRDLPWRRRAEDEMDLDRRAYAVWVSEVMLQQTQVATVINYYTGWMQKWPTLQDLASASLEEVNQLWAGLGYYSRGRRLQEGARKVVEELGGHMPRTAETLQQLLPGVGRYTAGAIASIAFGQATGVVDGNVARVLCRVRAIGADPSSTLVSQQLWGLAQQLVDPARPGDFNQAAMELGATVCTPQRPLCSQCPVESLCRARQRVEQEQLLASGSLSGSPDVEECAPNTGQCHLCLPPSEPWDQTLGVVNFPRKASRKPPREESSATCVLEQPGALGAQILLVQRPNSGLLAGLWEFPSVTWEPSEQLQRKALLQELQRWAGPLPATHLRHLGEVVHTFSHIKLTYQVYGLALEGQTPVTTVPPGARWLTQEEFHTAAVSTAMKKVFRVYQGQQPGTCMGSKRSQVSSPCSRKKPRMGQQVLDNFFRSHISTDAHSLNSAAQ

Variants of: B1
Assay: 8OG:A repair function score (normalized; synonymous = 0, nonsense = -1) (normalized log-likelihood score); higher = more repair activity (WT-like)
Conditions: with 8OG:A DNA repair reporter (GFP) in HEK-293 MUTYH KO cells
Experimental: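 Saturation mutagenesis (NNN codon scan) of the MUTYH cDNA (521-aa nuclear isoform NM_001048174.1 / NP_001041639), stably expressed under doxycycline induction in HEK-293 MUTYH knockout cells. Cells were co-transfected with an 8OG:A-bearing GFP repair reporter plus mCherry and sorted 72 h later into GFP+ and GFP− bins, three replicates per tile. The Rosace log2 enrichment (GFP+ vs GFP−) was converted per tile to a normalized function score with synonymous variants centered at 0 and nonsense variants (codons 1-471) at -1; low-abundance variants were removed.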

8OG:A repair function score of substitutions, site by site:
I195: Q -1.01, D -1.1, H -1.14, E -1.06, K -1.05, T -0.534, V -0.0879, W -0.908, R -1.02, S -0.944, G -0.964, N -1.12, P -1.04, Y -0.741, C -0.59, M -0.23, A -0.996, F -1.08, L -0.287
A194: G -0.624, T -0.422, N -0.737, V -0.443, D -1.03, P -1.06, W -1.05, Y -1.23, C -0.313, R -1.1, I -0.291, H -1.31, S -0.169, M -0.32, K -1.06, Q -0.577, E -0.986, L -0.733, F -1.16
A199: N -0.885, I -0.536, K -1.14, Q -1.11, Y -1.05, D -1.07, R -1.16, C 0.000923, W -0.8, L -1.01, T -0.214, H -0.874, P -1.07, M -0.87, S -0.171, V -0.155, G -0.183, E -1.06, F -1.13
Y190: S -0.22, Q -0.567, T -0.419, V -0.566, W -0.479, R -1.06
V207: I -0.363, Q -0.868, T -0.785, H -0.941, S -0.875, G -1.03, Y -0.858, N -0.883, E -1.03, L -0.375, P -1.01, C -0.542, R -0.947, K -0.909, A -0.78, D -0.986, W -0.834, M -0.495, F -0.875
Q202: A 0.00201, R -0.0857, T -0.198, G -0.395, Y -0.329, P -0.931, V -0.0323, N -0.274, S -0.0817, I -0.0774, K 0.0342, F -0.471, H -0.0825, W -0.586, C 0.0136, E -0.0729, D 0.0238, L -0.163, M -0.234
G193: D -0.37, N 0.0644, Y -0.241, R -0.0604, Q -0.238, A -0.0458, M -0.156, S 0.0283, H -0.0997, P -0.524, W -0.832, L -0.637, I -0.531, F -0.465, C 0.0546, K -0.203, E -0.722, V -0.346, T -0.169
S197: C -0.73, K -1, F -0.956, G -0.747, P -1.3, L -1.13, D -1.04, W -1.37, T -0.695, I -0.959, V -0.973, R -1.21, A -0.271, Y -0.898, H -1.22, N -1.17, Q -1.14, E -0.903
G205: A -0.145, W -0.894, H -0.8, V -0.876, R -0.953, E -0.592, C -0.378, N -0.947, T -0.773, P 0.0348, Q -0.764, Y -0.873, L -1.03, M -0.711, I -0.994, S -0.352, D -0.933, K -0.961, F -0.891
T204: A -0.0766, G -0.452, S -0.127, V 0.0534, N -0.117, D -0.103, H -0.234, W -0.109, M -0.111, E 0.00943, P -0.903, Q -0.045, C 0.0932, K 0.0186, Y -0.127, I 0.0296, F -0.0751, L -0.0721, R -0.0298
D208: H -1.01, G -1, I -1.02, F -1.04, E -0.991, A -1.04, C -1.02
F200: C -0.266, L -0.252, Q -0.502, N -0.427, K -0.874, M 0.0616, V -0.545, D -0.891, H -0.308, E -0.847, G -0.582, I -0.505, T -0.739, R -0.97, W -0.182, Y 0.0681, A -0.576, P -1.02, S -0.54
A192: C -0.572, N -0.876, I -1.07, S -0.166, V -0.943, K -1.07, W -1.16, Q -1.03, L -1.11, M -0.964, G -0.105, R -0.901, F -1.12, Y -1.07, D -0.927, H -0.926, E -0.908, P -1.17, T -1.07
A203: P 0.109, H 0.0237, S -0.0724, V 0.0414, Q 0.0356, C -0.101, W -0.183, G -0.165, D -0.191, Y -0.245, M -0.0505, N -0.000873, L -0.0917, E -0.0816, K 0.0825, F -0.255, R 0.00374, T 0.03, I 0.0319
V206: T -0.338, W -1.03, D -1.02, M -0.563, Q -0.927, E -1.01, K -1.01, P -0.905, F -0.894, A -0.219, Y -1.01, I -0.0438, R -1.01, L -0.338, N -0.923, C -0.0127, S -0.585, G -0.835, H -1.02
I198: T -0.36, S -0.757, H -0.963, M -0.189, R -0.575, G -1.05, E -0.552, C -0.474, N -0.562, Y -0.792, F -0.447, Q -0.466, V -0.254, D -1.1, K -1.06, L -0.391, A -0.548, P -0.841
G201: A -0.14, E -0.32, P -1.06, L -0.298, K 0.012, H 0.0082, D -0.0211, N 0.0301, F -0.266, I -0.543, Y -0.227, M -0.244, W -0.353, T -0.23, V -0.331, C -0.103, S -0.0385, R -0.0601, Q 0.039
T191: P -0.924, Y -1.07, E -0.898, L -0.585, C -0.351, Q -0.768, H -0.486, V -0.236, R -1.16, F -1.01, G -0.428, N -0.68, K -1.26, D -1.01, I -0.0338, W -1.2, S -0.16, M -0.127, A -0.325
A196: D -0.616, N -0.697, M -0.507, R -0.93, C -0.233, Y -0.723, I -0.703, W -1.18, L -0.68, K -0.993, V -0.382, F -0.939, P -1.11, G -0.309, E -0.674, S 0.00714, T -0.342, Q -0.897, H -0.673
